The results in this text go back to patent US20250313624A1.

The target of experiment [1] is control discoidal lipid bilayer-membrane scaffold protein complex without GPCR1 (empty complex). The experiment in a line: Octet assay; biotinylated empty complex captured on streptavidin through the Bir-A tag of the membrane scaffold protein (FIG. 1B).
Experiment [2] deals with discoidal lipid bilayer-membrane scaffold protein complex including GPCR1 transmembrane protein (human). The experiment in a line: Octet assay; biotinylated complex with GPCR1 captured on streptavidin through the Bir-A tag of the membrane scaffold protein (FIG. 1B). For orientation: Biolayer interferometry detects binding as a change in optical thickness at a sensor tip.

On to “streptavidin tethered to plates (from UniProt P22629 37-163)”, for which the Octet response in experiment [1] was determined as 0.69 nm; in experiment [2] it was 3 nm.
